{"source": "paper PMC6307784", "molecular_target": "T1, NhaR-His6 (Escherichia coli) (UniProt P0A9G2)", "T1 sequence": "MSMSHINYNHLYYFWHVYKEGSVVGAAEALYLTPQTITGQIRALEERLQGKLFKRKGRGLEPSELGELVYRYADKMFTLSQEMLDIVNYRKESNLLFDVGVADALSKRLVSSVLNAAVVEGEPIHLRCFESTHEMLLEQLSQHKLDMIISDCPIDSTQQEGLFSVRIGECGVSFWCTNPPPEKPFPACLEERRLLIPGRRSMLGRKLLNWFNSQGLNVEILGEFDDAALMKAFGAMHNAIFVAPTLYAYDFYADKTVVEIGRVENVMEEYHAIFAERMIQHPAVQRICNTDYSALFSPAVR", "assay": "EMSA", "settings": "LightShift Chemiluminescent EMSA Kit (Pierce) as per manufacturer, DNA 1 fM as printed, 5% PAGE; buffer, salt, pH and temperature not stated"}
{"sequence": "TCGACGAAGATAGAATCGTCTTTTTCGCGAAGTCTTACAAGGCGCTTACAGACAATGCCTTAAGGAAAATTTCATATGAAAGTTAAGAATTAACAATCAACATTTTGATTTTAAATGAAAATAACGATTCTTATCTTTTTAAGTATTCGCTTATTTCCTGGCGATCTCCTACAGAGTCTGTAAGAGATCTCTCACAACCAGATGGGGTATTTGGATTA (double strand) [csrB promoter 220 bp]", "values": [{"measurement": "binding", "result": "no binding"}]}
